Consider 19 variants from the supplement of paper PMC7125110.

First the molecules themselves.
B1: glmS ribozyme (parent)
chain: AUAAAAGCGCCAGAACUACAGAAAUGUAGUUGACGAGGAGGAGGUUUAUCGAAUUUUCGGCGGAUGCCUCCAAA

± gives the standard error. For some of these results: Variants at the floor of the assay were thinned out.

Holding throughout (details): with glucosamine-6-phosphate
Data set [1] covers variants of B1. Kind of data set: kcat; higher = faster cleavage; RNA array. An outline of the steps:
(§1)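 Glucosamine-6-phosphate (40 μM to 10 mM) in HEPES/KCl/Mg(OAc)2 buffer was flowed over sequenced MiSeq chips, and tiles were imaged over ~14 h. Barcoded ribozyme variants there had been transcribed in situ by E. coli RNA polymerase and were tracked through a hybridised Cy3 probe at 37 °C. One- or two-exponential decay fits to per-tile medians, normalised to baseline and to non-cleaving reference variants, gave kobs. kcat and KM came from weighted Michaelis–Menten fits across concentrations.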

The variants in data set [2] derive from B1. Briefly: KM; higher = weaker cofactor use; RNA array. In outline: as §1
In data set [3] the parent is B1. Briefly: self-cleavage kobs at 40 uM GlcN6P; higher = faster cleavage; RNA array. An outline of the steps: as §1
Variants of B1 are the subject of data set [4]. Kind of data set: self-cleavage kobs at 160 uM GlcN6P; higher = faster cleavage; RNA array. In outline: as §1
Data set [5] covers variants of B1. Briefly: self-cleavage kobs at 640 uM GlcN6P; higher = faster cleavage; RNA array. An outline of the steps:
as §1

The variants in data set [6] derive from B1. Kind of data set: self-cleavage kobs at 2500 uM GlcN6P; higher = faster cleavage; RNA array. An outline of the steps: as §1
Data set [7] covers variants of B1. Briefly: self-cleavage kobs at 10000 uM GlcN6P; higher = faster cleavage; RNA array. In outline:
as §1

The kcat is the maximal rate divided by the concentration of active sites. As a reminder, the KM is the concentration of substrate that gives half-maximal velocity. Regarding A53U, the kcat in the data set with glucosamine-6-phosphate [1] was 0.048 ± 0.0058 s⁻¹. The KM in the data set with glucosamine-6-phosphate [2] was 2500 ± 350 µM. The “self-cleavage kobs at 40 uM GlcN6P” value with glucosamine-6-phosphate [3] worked out at 0.000782 ± 1.4e-05 s⁻¹. Also, the “self-cleavage kobs at 160 uM GlcN6P” value with glucosamine-6-phosphate [4] was found to be 0.00253 ± 0.00016 s⁻¹. Besides, the “self-cleavage kobs at 640 uM GlcN6P” value with glucosamine-6-phosphate [5] was determined as 0.0093 ± 0.00029 s⁻¹. For the same variant, the “self-cleavage kobs at 2500 uM GlcN6P” value with glucosamine-6-phosphate [6] stood at 0.0221 ± 0.00097 s⁻¹. For the same variant, in the data set with glucosamine-6-phosphate [7], the “self-cleavage kobs at 10000 uM GlcN6P” value was 0.042 ± 0.0018 s⁻¹.

On to U54G A64C, for which the catalytic constant (kcat) with glucosamine-6-phosphate [1] was 0.000177 ± 1.8e-05 s⁻¹. In the data set with glucosamine-6-phosphate [2], the KM was found to be 2030 ± 590 µM. Besides, the “self-cleavage kobs at 40 uM GlcN6P” value with glucosamine-6-phosphate [3] is less than 1e-05 s⁻¹. For the same variant, in the data set with glucosamine-6-phosphate [5], the “self-cleavage kobs at 640 uM GlcN6P” value stood at 3.56e-05 ± 1.3e-05 s⁻¹. In addition, in the data set with glucosamine-6-phosphate [6], the “self-cleavage kobs at 2500 uM GlcN6P” value amounted to 0.000116 ± 2.4e-05 s⁻¹. The “self-cleavage kobs at 10000 uM GlcN6P” value with glucosamine-6-phosphate [7] is 0.000143 ± 1.8e-05 s⁻¹.

U47A G59U: in the data set with glucosamine-6-phosphate [1], the kcat was 5.89e-05 ± 1.5e-06 s⁻¹.

On to U31C A52U U65A, for which the kcat with glucosamine-6-phosphate [1] is less than 1e-05 s⁻¹.

For the variant G35U G43U, the kcat with glucosamine-6-phosphate [1] is less than 1e-05 s⁻¹. For the same variant, in the data set with glucosamine-6-phosphate [5], the “self-cleavage kobs at 640 uM GlcN6P” value was less than 1e-05 s⁻¹. Further, the “self-cleavage kobs at 2500 uM GlcN6P” value in the data set with glucosamine-6-phosphate [6] is less than 1e-05 s⁻¹.

A64U C71G: the kcat with glucosamine-6-phosphate [1] came out at 1.96e-05 ± 1.5e-06 s⁻¹.

In the case of G29A A64G, in the data set with glucosamine-6-phosphate [1], the catalytic constant (kcat) is 0.0066 ± 0.0018 s⁻¹. Also, the KM in the data set with glucosamine-6-phosphate [2] turned out to be 3900 ± 1500 µM. Moreover, in the data set with glucosamine-6-phosphate [3], the “self-cleavage kobs at 40 uM GlcN6P” value was 0.000101 ± 2.6e-05 s⁻¹. Besides, the “self-cleavage kobs at 160 uM GlcN6P” value with glucosamine-6-phosphate [4] is 0.000242 ± 6.6e-05 s⁻¹. The “self-cleavage kobs at 640 uM GlcN6P” value in the data set with glucosamine-6-phosphate [5] stood at 0.000967 ± 0.00022 s⁻¹. Further, the “self-cleavage kobs at 2500 uM GlcN6P” value with glucosamine-6-phosphate [6] is 0.00217 ± 0.00041 s⁻¹. In the data set with glucosamine-6-phosphate [7], the “self-cleavage kobs at 10000 uM GlcN6P” value was 0.00532 ± 0.00092 s⁻¹.

For the variant G66C C68U C71G, the kcat with glucosamine-6-phosphate [1] was less than 1e-05 s⁻¹. Moreover, in the data set with glucosamine-6-phosphate [4], the “self-cleavage kobs at 160 uM GlcN6P” value was less than 1e-05 s⁻¹.

Consider C11A U31C, for which the catalytic constant (kcat) with glucosamine-6-phosphate [1] worked out at 7.57e-05 ± 7.2e-06 s⁻¹. In addition, the KM with glucosamine-6-phosphate [2] came out at 1620 ± 610 µM. Also, in the data set with glucosamine-6-phosphate [6], the “self-cleavage kobs at 2500 uM GlcN6P” value was 5.09e-05 ± 1.4e-05 s⁻¹. The “self-cleavage kobs at 10000 uM GlcN6P” value in the data set with glucosamine-6-phosphate [7] worked out at 6.39e-05 ± 1.1e-05 s⁻¹.

With A12G C16G, the kcat with glucosamine-6-phosphate [1] was found to be 0.000144 ± 1.3e-05 s⁻¹. For the same variant, the KM with glucosamine-6-phosphate [2] was 7160 ± 1300 µM. For the same variant, the “self-cleavage kobs at 2500 uM GlcN6P” value with glucosamine-6-phosphate [6] is 3.92e-05 ± 1.4e-05 s⁻¹. In the data set with glucosamine-6-phosphate [7], the “self-cleavage kobs at 10000 uM GlcN6P” value amounted to 8.35e-05 ± 1.2e-05 s⁻¹.

Take A12G C16A: the kcat in the data set with glucosamine-6-phosphate [1] turned out to be 3.87e-05 ± 9.1e-07 s⁻¹. Moreover, the KM in the data set with glucosamine-6-phosphate [2] came out at 1330 ± 200 µM. In addition, the “self-cleavage kobs at 40 uM GlcN6P” value with glucosamine-6-phosphate [3] was less than 1e-05 s⁻¹. The “self-cleavage kobs at 10000 uM GlcN6P” value with glucosamine-6-phosphate [7] is 3.41e-05 ± 6.7e-06 s⁻¹.

Take U30A U45A C50U: the kcat with glucosamine-6-phosphate [1] is less than 1e-05 s⁻¹. The “self-cleavage kobs at 160 uM GlcN6P” value in the data set with glucosamine-6-phosphate [4] is less than 1e-05 s⁻¹.

Take C16U A42C: the kcat in the data set with glucosamine-6-phosphate [1] is 1.1e-05 ± 6.5e-07 s⁻¹.

Consider G29C A53U, for which the kcat with glucosamine-6-phosphate [1] is 0.00163 ± 0.00038 s⁻¹. Besides, the KM with glucosamine-6-phosphate [2] worked out at 1950 ± 640 µM. For the same variant, the “self-cleavage kobs at 40 uM GlcN6P” value with glucosamine-6-phosphate [3] is 5.34e-05 ± 1.1e-05 s⁻¹. Also, in the data set with glucosamine-6-phosphate [4], the “self-cleavage kobs at 160 uM GlcN6P” value was 0.000111 ± 1.9e-05 s⁻¹. The “self-cleavage kobs at 640 uM GlcN6P” value with glucosamine-6-phosphate [5] stood at 0.000383 ± 6.3e-05 s⁻¹. Further, the “self-cleavage kobs at 2500 uM GlcN6P” value with glucosamine-6-phosphate [6] was determined as 0.000902 ± 0.0002 s⁻¹. The “self-cleavage kobs at 10000 uM GlcN6P” value in the data set with glucosamine-6-phosphate [7] was found to be 0.00141 ± 0.00024 s⁻¹.

As to G32U G66C, the kcat in the data set with glucosamine-6-phosphate [1] amounted to 5.37e-05 ± 2.7e-06 s⁻¹. The KM with glucosamine-6-phosphate [2] is 7240 ± 850 µM. Further, in the data set with glucosamine-6-phosphate [3], the “self-cleavage kobs at 40 uM GlcN6P” value was less than 1e-05 s⁻¹. In the data set with glucosamine-6-phosphate [7], the “self-cleavage kobs at 10000 uM GlcN6P” value was found to be 3.11e-05 ± 1.2e-05 s⁻¹.

Regarding G37A G41U, the kcat with glucosamine-6-phosphate [1] was 0.000119 ± 2.1e-05 s⁻¹. Further, the “self-cleavage kobs at 640 uM GlcN6P” value with glucosamine-6-phosphate [5] came to 4.8e-05 ± 1.3e-05 s⁻¹. Also, the “self-cleavage kobs at 2500 uM GlcN6P” value in the data set with glucosamine-6-phosphate [6] turned out to be 0.000126 ± 1.7e-05 s⁻¹. For the same variant, the “self-cleavage kobs at 10000 uM GlcN6P” value with glucosamine-6-phosphate [7] was 0.0001 ± 1.2e-05 s⁻¹.

With C50G G60U C61U U69A, the kcat in the data set with glucosamine-6-phosphate [1] was 7.69e-05 ± 1.1e-05 s⁻¹. Besides, in the data set with glucosamine-6-phosphate [4], the “self-cleavage kobs at 160 uM GlcN6P” value is 0.000102 ± 3.2e-05 s⁻¹. The “self-cleavage kobs at 640 uM GlcN6P” value with glucosamine-6-phosphate [5] amounted to 7.91e-05 ± 2.6e-05 s⁻¹. Moreover, the “self-cleavage kobs at 2500 uM GlcN6P” value in the data set with glucosamine-6-phosphate [6] was found to be 7.43e-05 ± 1e-05 s⁻¹.

On to G7U C70G, for which the kcat in the data set with glucosamine-6-phosphate [1] was found to be 0.000479 ± 0.00015 s⁻¹. In addition, the “self-cleavage kobs at 40 uM GlcN6P” value in the data set with glucosamine-6-phosphate [3] amounted to 0.000382 ± 0.00012 s⁻¹. Besides, the “self-cleavage kobs at 160 uM GlcN6P” value with glucosamine-6-phosphate [4] is 0.000844 ± 0.0002 s⁻¹. The “self-cleavage kobs at 640 uM GlcN6P” value with glucosamine-6-phosphate [5] came out at 0.0004 ± 0.00014 s⁻¹.

A12C G66A: the catalytic constant (kcat) in the data set with glucosamine-6-phosphate [1] turned out to be 0.00855 ± 0.0022 s⁻¹. For the same variant, the KM with glucosamine-6-phosphate [2] was 1580 ± 570 µM. Moreover, the “self-cleavage kobs at 40 uM GlcN6P” value in the data set with glucosamine-6-phosphate [3] was 0.00028 ± 7e-05 s⁻¹. Further, in the data set with glucosamine-6-phosphate [4], the “self-cleavage kobs at 160 uM GlcN6P” value was 0.000705 ± 0.00014 s⁻¹. In addition, the “self-cleavage kobs at 640 uM GlcN6P” value with glucosamine-6-phosphate [5] was 0.00241 ± 0.00027 s⁻¹. Further, the “self-cleavage kobs at 2500 uM GlcN6P” value with glucosamine-6-phosphate [6] turned out to be 0.00753 ± 0.0014 s⁻¹. The “self-cleavage kobs at 10000 uM GlcN6P” value in the data set with glucosamine-6-phosphate [7] was 0.00648 ± 0.0015 s⁻¹.
